Assays:
[1] = Freezing point depression of DMSO solutions by DSC; type: physicochemical; details: cooled to −40° C. and heated to 40° C. at 8° C. per minute
Method: Using PerkinElmer Instruments PYRIS Diamond Differential Scanning Calorimetry (“DSC”), samples were cooled to −40° C. and heated to 40° C. at 8° C. per minute for screening purposes.

[2] = Effect of pH on insulin solubility in DMSO; type: physicochemical
Method: These solutions were lyophilized to dryness ([…]) using a conservative cycle and reconstituted to various nominal concentrations in DMSO. Solubility was measured by visual inspection for clarity and turbidity via A630.

| Compound | temperature of crystallization (Tc) by DSC [1] [°C] | solubility in DMSO ([2]; lyophilized at pH 2) | time to slowly dissolve to a clear solution ([2]; pH memory of 7, lower concentration e.g. 10 mg/mL, DMSO) | solubility in DMSO ([2]; pH memory of 7, lowest concentration tested 10 mg/mL) |
| --- | --- | --- | --- | --- |
| C[S+](C)[O-] [neat DMSO, dimethylsulfoxide] | 18 | – | – | – |
| insulin | – | at least 100 mg/mL | about 24 hours | poor solubility |

From US9295724B2, “Stable formulations for parenteral injection of peptide drugs” (Xeris Pharmaceuticals, Inc., priority 2011, dated 2016)
